The results in this text go back to US20200297862A1 (Zymeworks, published 2020).

For test [1], the target named is T1, Recombinant human HER2 (human, UniProt P04626 23-652).
T1 construct: extracellular domain
Put plainly: SPR as in Example 12, one-armed antibody, post-SEC, against v10013.

In test [2] the target is T1, Recombinant human HER2. Nature of the test: SPR as in Example 12, one-armed antibody, pre-SEC, against v10013.

B1: Variant 10014 (antibody, name in Kabat numbering, V domains shown)
VH: EVQLVESGGGLVQPGGSLRLSCAASGFTFADYTMDWVRQAPGKGLEWVADVNPNSGGSIYNQRFKGRFTLSVDRSKNTLYLQMNSLRAEDTAVYYCARNLGPSFYFDYWGQGTLVTVSS
VL: DIQMTQSPSSLSASVGDRVTITCKASQDVSIGVAWYQQKPGKAPKLLIYSASYRYTGVPSRFSGSGSGTDFTLTISSLQPEDFATYYCQQYYIYPATFGQGTKVEIK
notes: also called v10014; OAA variant
For the molecule B1, the “Fold wrt WT (KD(WT)/KD(mut))” value is 7 fold in test [1] and 8.1 fold in test [2].
